Experimental data as given in US20210101953A1 (ZHEJIANG K2 ONCOLOGY, published 2021).

Experiments:
[1] = target: T1, recombinant human EpCAM protein (Sino biologics, Product Number 10694-H08H) (human, UniProt P16422 24-265); experiment: ELISA on coated recombinant human EpCAM, bound protein detected by its IL-2 part with an IL-2 ELISA kit
T1 construct: Bought protein coated on the ELISA plate at 1 ug/ml
T1 sequence (looked up): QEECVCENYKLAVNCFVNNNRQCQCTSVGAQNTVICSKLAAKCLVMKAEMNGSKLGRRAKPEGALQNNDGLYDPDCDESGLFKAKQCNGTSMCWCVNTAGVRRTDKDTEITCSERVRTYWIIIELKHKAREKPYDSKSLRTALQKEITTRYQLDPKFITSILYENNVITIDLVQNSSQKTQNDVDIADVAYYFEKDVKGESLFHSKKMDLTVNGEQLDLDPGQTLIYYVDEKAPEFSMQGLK
Protocol: 2. […] [0069] ii. IL-2 level detection: an IL-2 ELISA commercial kit (Manufacturer: Biolegend; Product Number 431801) is adopted; the brief steps include adding a primary antibody of anti-human IL-2, incubating for 1 hour and then adding a horseradish peroxidase labeled secondary antibody to obtain a […] signal by TMB color development. [0070] iii. Data processing: a standard curve is obtained by using an IL-2 standard product included in the kit, and the IL-2 signal level corresponding to the amount of protein bound to EpCAM is calculated, which represents the level of the protein bound to EpCAM.

[2] = target: T2, EpCAM protein on Skov3 cells (UniProt P16422 24-314, limits assumed); experiment: staining of fixed Skov3 cells, detected with anti-human IL-2 antibody and DAB
T2 construct: whole, on cells; also called cellular level EpCAM; epithelial cell adhesion molecule
T2 sequence (looked up): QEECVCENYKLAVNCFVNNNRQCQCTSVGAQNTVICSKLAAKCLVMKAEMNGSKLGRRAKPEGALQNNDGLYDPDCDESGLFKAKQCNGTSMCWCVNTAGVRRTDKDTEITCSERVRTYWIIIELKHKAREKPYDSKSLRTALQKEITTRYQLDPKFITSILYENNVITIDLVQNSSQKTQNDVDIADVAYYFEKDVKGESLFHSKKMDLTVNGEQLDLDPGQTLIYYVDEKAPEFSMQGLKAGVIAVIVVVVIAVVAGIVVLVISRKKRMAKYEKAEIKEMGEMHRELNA
Protocol: Skov3 cells have adherent growth in a 24-pore plate for 24 hours and are fixed for 10 minutes using 4% PFA (paraformaldehyde); 5% BSA is added to block non-specific antigens; a primary antibody of anti-human IL-2 is added for incubation for 1 hour; after washing is performed 3 times with PBST, a secondary antibody is added; after incubation is performed for 1 hour, DAB (diaminobenzidine) is added for color development; and after washing is performed with PBS, photographing is performed under a bright-field microscope.

B1: fusion protein EPIL-2-2303301 of the anti-EpCAM single-chain antibody and IL-2 (other)
chain: APTSSSTKKTQLQLEHLLLDLQMILNGINNYKNPKLTRMLTFKFYMPKKATELKHLQCLEEELKPLEEALNLAPSKNFHLRPRDLISNINVIVLELKGSETTFMCEYADETATIVEFLNRWITFSQSTISTLTGGGGSGGGGSGGGGSGGGGSEVQLLEQSGAELVKPGASVKISCKASGYAFTNYWLGWVKQRPGHGLEWIGDLFPGSGNTHYNERFRGKATLTADKSSSTAFMQLSSLTSEDSAVYFCARLRNWDEAMDYWGQGTTVTVSSGGGGSGGGGSGGGGSELVMTQSPSYLAASPGETITINCRASKSISKYLAWYQEKPGKTNKLLIYSGSTLQSGIPSRFSGSGSGTDFTLTISSLEPEDFAMYYCQQHNEYPYTFGGGTKLEIKHHHHHH
notes: Single chain; Expressed in HEK293 cells and purified on Ni-Sepharose
- binding result [1]: binds
- binding result [2]: binds

B2: fusion protein EPIL-2-2303407 of the anti-EpCAM single-chain antibody and IL-2 (other)
chain: APTSSSTKKTQLQLEHLLLDLQMILNGINNYKNPKLTRMLTFKFYMPKKATELKHLQCLEEELKPLEEALNLAPSKNFHLRPRDLISNINVIVLELKGSETTFMCEYADETATIVEFLNRWITFSQSTISTLTGGGGSGGGGSGGGGSGGGGSEVQLLEQSGAELARPGASVKLSCKASGYTFTNYGLSWVKQRPGQVLEWIGEVYPRIGNAYYNEKFKGKATLTADKSSSTASMELRSLTSEDSAVYFCARRGSYDTNYDWYFDVWGQGTTVTVSSGGGGSGGGGSGGGGSELVMTQTPLSLPVSLGDQASISCRSSQSLVHSNGNTYLHWYLQKPGQSPKLLIYKVSNRFSGVPDRFSGSGSGTDFTLKISRVEAEDLGVYFCSQSTHVPYTFGGGTKLEIKHHHHHH
notes: as for B1
- binding result [1]: binds
- binding result [2]: binds
